# Test results as given in patent publication US20220119534A1 (DRAGONFLY THERAPEUTICS, published 2022).
# Residue numbers refer to the chain shown, from its start. Names and notes keep the numbering of the source. Values joined by “and” are separate entries in the source; they are usually repeats but may differ in a detail not shown here. Identical values can stand only once. Like-named read-outs stand apart in the source and are kept apart here.
# T1: Human CLEC12A-His (human, UniProt Q5QGZ9 65-265)
# T1 sequence: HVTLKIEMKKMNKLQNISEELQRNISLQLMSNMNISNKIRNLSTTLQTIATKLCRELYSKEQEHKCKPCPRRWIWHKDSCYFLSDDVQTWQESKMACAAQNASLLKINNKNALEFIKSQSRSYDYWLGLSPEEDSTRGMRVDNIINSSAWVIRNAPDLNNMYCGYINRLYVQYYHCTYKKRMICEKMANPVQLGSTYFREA
# T2: Human CD32a H131 (FcγRIIa H131) (human, UniProt P12318 36-218, limits assumed, biotinylated)
# T2 construct: Bought recombinant receptor; also called hFcγRIIa H131; FcgRIIa H131
# T2 sequence (looked up): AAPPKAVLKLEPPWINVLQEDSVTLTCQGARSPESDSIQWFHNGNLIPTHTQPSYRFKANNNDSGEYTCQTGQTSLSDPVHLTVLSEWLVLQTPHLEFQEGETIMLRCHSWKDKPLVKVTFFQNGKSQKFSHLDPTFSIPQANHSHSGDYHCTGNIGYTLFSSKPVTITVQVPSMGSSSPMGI
# T3: Human CD32a R131 (FcγRIIa R131) (human, UniProt P12318 36-218, limits assumed, biotinylated)
# T3 construct: Bought recombinant receptor; also called hFcγRIIa R131; FcgRIIa R131
# T3 sequence (looked up): T2 sequence (looked up) with H132R
# T4: Human CLEC12A-His (recombinant, K244 WT) (human, UniProt Q5QGZ9 65-265)
# T4 construct: Made in house (Dragonfly Tx); also called hCLEC12A; hCLEC12A-His; not shown: His tag
# T4 sequence: T1 sequence
# T5: Human CLEC12A-K244Q-His (human, UniProt Q5QGZ9 65-265)
# T5 construct: Polymorphic variant; also called hCLEC12A (Q244); not shown: His tag
# T5 chain: T1 sequence with K180Q
# T6: Human CLEC12A-His (human, UniProt Q5QGZ9 65-265)
# T6 construct: Recombinant soluble protein made in house; also called hCLEC12A-His; hCLEC12A; not shown: His tag
# T6 sequence: T1 sequence
# T7: mFc-hNKG2D (human, UniProt P26718 73-216)
# T7 construct: extracellular domain; Recombinant mFc-tagged NKG2D dimer, made in house; also called human NKG2D; not shown: mouse Fc tag
# T7 sequence (looked up): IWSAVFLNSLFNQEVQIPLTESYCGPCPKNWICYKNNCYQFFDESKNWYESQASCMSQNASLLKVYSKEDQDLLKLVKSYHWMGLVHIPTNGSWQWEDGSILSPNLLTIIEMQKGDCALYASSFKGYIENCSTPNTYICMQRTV
# T8: De-sialylated CLEC12A (human, UniProt Q5QGZ9 65-265, treated with neuraminidase (terminal sialic acids removed))
# T8 construct: Recombinant human CLEC12A after neuraminidase; also called de-sialylated hCLEC12A
# T8 sequence: T1 sequence
# B1: F3'-1602 TriNKET (bispecific antibody, human IgG1, kappa)
# chain: QLQLQESGPGLVKPSETLSLTCTVSGFSLTNYGLHWIRQPPGKCLEWIGVIWSGGKTDYNPSLKSRVTISKDTSKNQFSLKLSSVQAADTAVYYCAKYDYDDSLDYWGQGTLVTVSSGGGGSGGGGSGGGGSGGGGSDIQMTQSPSSLSASVGDRVTITCHASQNINFWLSWYQQKPGKAPKLLIYEASNLHTGVPSRFSGSGSGTRFTLTISSLQPEDIATYYCQQSHSYPLTFGCGTKLEIKGSDKTHTCPPCPAPELLGGPSVFLFPPKPKDTLMISRTPEVTCVVVDVSHEDPEVKFNWYVDGVEVHNAKTKPREEQYNSTYRVVSVLTVLHQDWLNGKEYKCKVSNKALPAPIEKTISKAKGQPREPRVYTLPPCRDELTKNQVSLTCLVKGFYPSDIAVEWESNGQPENNYKTTPPVLVSDGSFTLYSKLTVDKSRWQQGNVFSCSVMHEALHNHYTQKSLSLSPG
# heavy: EVQLVESGGGLVKPGGSLRLSCAASGFTFSSYSMNWVRQAPGKGLEWVSSISSSSSYIYYADSVKGRFTISRDNAKNSLYLQMNSLRAEDTAVYYCARGAPIGAAAGWFDPWGQGTLVTVSSASTKGPSVFPLAPSSKSTSGGTAALGCLVKDYFPEPVTVSWNSGALTSGVHTFPAVLQSSGLYSLSSVVTVPSSSLGTQTYICNVNHKPSNTKVDKKVEPKSCDKTHTCPPCPAPELLGGPSVFLFPPKPKDTLMISRTPEVTCVVVDVSHEDPEVKFNWYVDGVEVHNAKTKPREEQYNSTYRVVSVLTVLHQDWLNGKEYKCKVSNKALPAPIEKTISKAKGQPREPQVCTLPPSRDELTENQVSLTCLVKGFYPSDIAVEWESNGQPENNYKTTPPVLDSDGSFFLYSWLTVDKSRWQQGNVFSCSVMHEALHNHYTQKSLSLSPG
# light: DIQMTQSPSSVSASVGDRVTITCRASQGISSWLAWYQQKPGKAPKLLIYAASSLQSGVPSRFSGSGSGTDFTLTISSLQPEDFATYYCQQGVSFPRTFGGGTKVEIKRTVAAPSVFIFPPSDEQLKSGTASVVCLLNNFYPREAKVQWKVDNALQSGNSQESVTEQDSKDSTYSLSSTLTLSKADYEKHKVYACEVTHQGLSSPVTKSFNRGEC
# notes: Trispecific F3' format: CLEC12A scFv-Fc paired with NKG2D Fab-Fc; Stressed and control samples of the stability studies are the same molecule; also called AB0237
# B2: AB0089 TriNKET (bispecific antibody, human IgG1, kappa)
# chain: B1 chain with S53V, K56A, K71V, Y98G, D101G, S103T, R207D, I220F
# heavy: B1 heavy
# light: B1 light
# notes: F3' format heterodimer of three chains; human IgG1 Fc with EW-RVT and Y349C/S354C mutations; also called AB0089 Lot AB0089-002; CLEC12A TriNKET AB0089
# B3: F3'-1602 TriNKET (other)
# chain: B1 chain
# heavy: B1 heavy
# light: B1 light
# notes: CLEC12A scFv-Fc, NKG2D A49MI Fab-Fc, human IgG1 Fc; also called AB0237
# B4: AB0192 TriNKET (other)
# chain: EVQLVESGGGVVQPGGSLRLSCAASGFTFNAFGMHWVRQAPGKCLEWVAFISSGSTSIYYANTVKGRFTISRDNSKNTLYLQMNSLRAEDTAVYYCARDGYPTGGAMDYWGQGTSVTVSSGGGGSGGGGSGGGGSGGGGSDIQMTQSPSSLSASVGDRVTITCKASQDIYNYLSWFQQKPGKAPKPLIYRANILVSGVPSRFSGSGSGQDYTFTISSLQPEDIATYYCLQFDAFPFTFGCGTKLEIKGSDKTHTCPPCPAPELLGGPSVFLFPPKPKDTLMISRTPEVTCVVVDVSHEDPEVKFNWYVDGVEVHNAKTKPREEQYNSTYRVVSVLTVLHQDWLNGKEYKCKVSNKALPAPIEKTISKAKGQPREPRVYTLPPCRDELTKNQVSLTCLVKGFYPSDIAVEWESNGQPENNYKTTPPVLVSDGSFTLYSKLTVDKSRWQQGNVFSCSVMHEALHNHYTQKSLSLSPG
# heavy: B1 heavy
# light: B1 light
# notes: the condition stands under assay; also called AB0192 Lot AB0192-005
# Legend:
# Human CLEC12A-His [1] = target: T1, Human CLEC12A-His; experiment: cell-based or functional assay
# Human CLEC12A-His [2] = target: T1, Human CLEC12A-His; experiment: SPR Biacore 8K 37 C; TriNKET captured on anti-hFc chip, hCLEC12A-His as analyte; classical 1:1 fit
# Procedure: Briefly, human Fc specific antibodies were covalently immobilized at a density ˜8000-10000 resonance units (RU) on carboxy methyl dextran matrix of a CM5 biosensor chip via amine-coupling chemistry to create an anti-hFc IgG chip. […] Association was monitored for 300 seconds and dissociation was monitored for 600 seconds. Surfaces were regenerated between cycles with three pulses of 10 mM glycine-HCl, pH 1.7 injected for 20 seconds at 100 μL/min. HBS-EP+ (1×) with 0.1 mg/mL BSA buffer was used throughout the experiment. Data were analyzed using Biacore 8K Insight Evaluation software (GE Healthcare).
# [3] = target: T9, Human CD16a V158 (FcγRIIIa V158) (human, UniProt P08637 17-208, biotinylated (site not stated)); experiment: SPR; biotinylated CD16a V158 captured on SA chip, TriNKET as analyte; 1:1 kinetic fit; after 4 wks 40 C in phosphate/citrate/NaCl pH 7.8
# T9 construct: V158 is the allele name in mature numbering; also called hCD16aV; hCD16a V158
# [4] = target: T2, Human CD32a H131 (FcγRIIa H131); experiment: SPR 25C, average
# Procedure: (§1) Human and cynomolgus CD64, high and low affinity alleles of CD16a (V158 and F158, respectively), two alleles of CD32a (H131 and R131), CD16b, CD32b and cynomolgus CD16 were captured via biotin on a primed (according to the manufacturers instruction) Biacore chip. […] Due to irreversibility of streptavidin-biotin interaction, the capture step for all receptors except FcγRI (CD64) was performed just once prior to the start of the binding experiment. hCD64 and cyno CD64 capture on the CAP chip surface was performed during each cycle in accordance with the manufacturer's instructions for the Biotin CAPture kit.
# [5] = target: T3, Human CD32a R131 (FcγRIIa R131); experiment: SPR 25C, average
# Procedure: as §1
# [6] = target: T4, Human CLEC12A-His (recombinant, K244 WT); experiment: SPR, two-state fit (kd1); control sample
# Procedure: (§2) Briefly, human Fc specific antibodies were covalently immobilized at a density ˜8000-10000 resonance units (RU) on carboxy methyl dextran matrix of a CM5 biosensor chip via amine-coupling chemistry to create an anti-hFc IgG chip. […] Association was monitored for 300 seconds and dissociation was monitored for 600 seconds. Surfaces were regenerated between cycles with three pulses of 10 mM glycine-HCl, pH 1.7 injected for 20 seconds at 100 μl/min. HBS-EP+ (1×) with 0.1 mg/ml BSA was used as running buffer throughout the experiment. Experiments were performed at physiological temperature of 37° C. To obtain kinetic rate constants and overall binding affinity, double-referenced data were fit to a two-state kinetic model using Biacore 8K Insight Evaluation software (Cytiva).
# [7] = target: T4, Human CLEC12A-His (recombinant, K244 WT); experiment: SPR, two-state fit (kd1); control sample; remark: listed apart in the source
# Procedure: as §2
# [8] = target: T4, Human CLEC12A-His (recombinant, K244 WT); experiment: SPR, two-state fit (ka1); after forced oxidation
# [9] = target: T10, recombinant cynomolgus CD16 (cynomolgus monkey, UniProt Q8SPW2 17-208, biotinylated); experiment: SPR 25C, steady state
# T10 construct: also called cFcγRIII; cyno CD16
# Source text: Human and cyno CD64, high and low affinity alleles of CD16a (V158 and F158, respectively), two alleles of CD32a (H131 and R131), CD16b, CD32b and cynomolgus CD16 were captured via biotin on a primed Biacore chip, prepared according to the manufacturer's instructions.
# recombinant human FcRn = target: T11, recombinant human FcRn (human, UniProt P55899 24-297; P61769 21-119); experiment: SPR 25C, pH 6.0, steady state; pH 6.0; third replicate
# T11 construct: also called hFcRn
# Human CLEC12A-K244Q-His = target: T5, Human CLEC12A-K244Q-His; experiment: SPR, hCLEC12A (Q244) variant
# Human CLEC12A-His [10] = target: T6, Human CLEC12A-His; experiment: SPR; control sample (pH 5 stress study)
# Human CD16a V158 = target: T12, Human CD16a V158 (human, UniProt P08637 17-208, biotinylated); experiment: SPR; control sample (pH 5 stress study)
# T12 construct: Bought recombinant receptor; also called hCD16a (V158); hFcγRIIIa V158
# mFc-hNKG2D = target: T7, mFc-hNKG2D; experiment: SPR, 37 C, mFc-hNKG2D captured, steady state fit
# Source text: NKG2D is a dimer in nature, therefore recombinant mFc-tagged NKG2D dimer was used for this experiment. […] Two different fits were utilized to obtain the equilibrium affinity data: steady state affinity fit and kinetic fit.
# De-sialylated CLEC12A = target: T8, De-sialylated CLEC12A; experiment: SPR, de-sialylated CLEC12A; average of 3 replicates
# T10 sequence (Q8SPW2 17-208 limits assumed): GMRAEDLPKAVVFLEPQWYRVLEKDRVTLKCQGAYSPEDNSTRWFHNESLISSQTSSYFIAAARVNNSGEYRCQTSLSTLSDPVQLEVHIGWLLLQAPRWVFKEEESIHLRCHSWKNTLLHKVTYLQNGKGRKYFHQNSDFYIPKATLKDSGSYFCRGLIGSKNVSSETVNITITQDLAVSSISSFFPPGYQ
# T12 sequence (P08637 17-208 F176V limits assumed): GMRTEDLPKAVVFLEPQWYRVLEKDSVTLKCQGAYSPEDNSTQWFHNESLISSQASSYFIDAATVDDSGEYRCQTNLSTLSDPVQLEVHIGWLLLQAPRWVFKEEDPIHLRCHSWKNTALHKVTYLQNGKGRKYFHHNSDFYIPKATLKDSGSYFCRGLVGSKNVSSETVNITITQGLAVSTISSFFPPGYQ
# T9 sequence (P08637 17-208 F176V limits assumed): as above
# T11 sequence (P55899 24-297 limits assumed, chain 1 of 2): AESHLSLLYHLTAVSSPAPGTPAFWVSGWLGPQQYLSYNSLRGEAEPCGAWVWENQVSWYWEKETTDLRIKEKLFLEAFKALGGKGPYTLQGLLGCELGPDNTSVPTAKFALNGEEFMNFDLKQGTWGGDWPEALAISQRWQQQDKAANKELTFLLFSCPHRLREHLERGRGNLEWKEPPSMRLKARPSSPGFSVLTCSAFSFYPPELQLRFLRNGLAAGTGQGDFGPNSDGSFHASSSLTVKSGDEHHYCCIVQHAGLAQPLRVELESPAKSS
# T11 sequence (P61769 21-119 limits assumed, chain 2 of 2): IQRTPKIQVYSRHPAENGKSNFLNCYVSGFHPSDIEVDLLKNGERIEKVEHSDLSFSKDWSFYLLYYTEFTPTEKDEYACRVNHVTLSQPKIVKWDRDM
binder,measurement,setting,value
B1,"EC50 (nM), lysis of CLEC12A+ PL21 cells by KHYG-1-CD16a cells; HST formulation, 40 C, 4 wks",Human CLEC12A-His [1],1.21 nM
same,"EC50 (nM), lysis of CLEC12A+ PL21 cells by KHYG-1-CD16a cells; control sample",Human CLEC12A-His [1],0.17 nM
same,Kd,Human CLEC12A-His [2],0.8 nM
same,koff,Human CLEC12A-His [2],0.000895 s⁻¹
same,kon,Human CLEC12A-His [2],1.11e+06 M⁻¹ s⁻¹
same,Kd,[3],216 nM
same,koff,[3],0.0209 s⁻¹
same,kon,[3],96700 M⁻¹ s⁻¹
B2,Kd,[4],900 nM
same,Kd,[5],1250 nM
same,koff,[6],0.0476 s⁻¹
same,koff,[7],0.0435 s⁻¹
same,kon,[8],9.93e+06 M⁻¹ s⁻¹
B3,Kd,[9],315 nM and 294 nM and 302 nM
same,Kd,recombinant human FcRn,1500 nM
B4,Kd,Human CLEC12A-K244Q-His,4.51 nM
same,koff,Human CLEC12A-K244Q-His,0.0037 s⁻¹
same,kon,Human CLEC12A-K244Q-His,824000 M⁻¹ s⁻¹
same,Kd,Human CLEC12A-His [10],1.68 nM
same,koff,Human CLEC12A-His [10],0.00129 s⁻¹
same,kon,Human CLEC12A-His [10],771000 M⁻¹ s⁻¹
same,Kd,Human CD16a V158,171 nM
same,koff,Human CD16a V158,0.0199 s⁻¹
same,kon,Human CD16a V158,117000 M⁻¹ s⁻¹
same,Kd,mFc-hNKG2D,770 nM and 783 nM and 788 nM
same,Kd,De-sialylated CLEC12A,1.04 nM
same,koff,De-sialylated CLEC12A,0.00104 s⁻¹
same,kon,De-sialylated CLEC12A,1.01e+06 M⁻¹ s⁻¹
